Measurements as given in patent publication US20130330346A1 (Novartis, published 2013).
Positions count from the first letter of the chain named. Ends that are not written are not given here.

T1: Human CXCR2 (human, UniProt P25025 1-360)
T1 construct: Some cell lines carry an N-terminal 3xHA tag; also called hCXCR2; huCXCR2
T1 sequence: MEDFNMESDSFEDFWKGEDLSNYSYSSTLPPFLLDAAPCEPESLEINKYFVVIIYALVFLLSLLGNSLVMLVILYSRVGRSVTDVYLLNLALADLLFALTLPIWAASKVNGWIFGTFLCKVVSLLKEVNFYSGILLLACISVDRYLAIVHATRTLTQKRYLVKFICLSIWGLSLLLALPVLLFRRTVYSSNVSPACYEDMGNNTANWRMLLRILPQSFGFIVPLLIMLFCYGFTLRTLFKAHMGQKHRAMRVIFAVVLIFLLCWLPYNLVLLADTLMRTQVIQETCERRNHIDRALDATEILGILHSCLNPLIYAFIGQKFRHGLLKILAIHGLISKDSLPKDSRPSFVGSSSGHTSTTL

T2: Cynomolgus CXCR2 (cynomolgus, UniProt Q28519 3-353 (rhesus entry))
T2 construct: On transfected HEK293T or RBL-2H3 cells; native on cynomolgus neutrophils in the WBSC assay; also called cCXCR2; cynoCXCR2
T2 chain: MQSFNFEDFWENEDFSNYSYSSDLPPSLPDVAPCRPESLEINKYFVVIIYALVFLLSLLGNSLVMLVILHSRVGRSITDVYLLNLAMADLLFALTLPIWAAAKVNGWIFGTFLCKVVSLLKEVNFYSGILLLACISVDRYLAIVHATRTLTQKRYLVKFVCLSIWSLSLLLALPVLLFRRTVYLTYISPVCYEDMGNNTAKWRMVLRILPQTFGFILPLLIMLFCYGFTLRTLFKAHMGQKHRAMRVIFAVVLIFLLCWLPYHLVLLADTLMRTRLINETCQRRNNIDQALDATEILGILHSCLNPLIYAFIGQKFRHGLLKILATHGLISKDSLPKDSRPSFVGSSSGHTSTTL

T3: Human 1to19 peptide (human)
T3 construct: First 19 N-terminal amino acids of human CXCR2, captured on neutravidin; also called human CXCR2 1 to19 peptide; 1-19 Nter peptide
T3 peptide: MEDFNMESDSFEDFWKGED-biotin

B1: CXCR20059 (VHH)
VHH: EVQLLESGGGLVQPGGSLRLSCAASGSILTINAMGWYRQAPGKQRELVVRRTRGGSTTYQDSVKGRFTISADISKKTMYLQMNSLRPEDTAVYYCLLDDRGGVYWGQGTLVTVSS
B2: 2B2 (VHH)
VHH: B1 VHH with L5V, G10E, S74A, R86K, L96M, L110Q
notes: Tested as periplasmic extract (pAX50) and as purified His6-tagged protein (pAX100); also called 002B02; not shown: C-terminal c-myc tag and His6 tag coded by the vector
B3: CXCR20063 (VHH)
VHH: B1 VHH with K76N

Columns and labels:
Human CXCR2 [1] = biological target: T1, Human CXCR2; experiment: FACS hGro-α competition
Cynomolgus CXCR2 [2] = biological target: T2, Cynomolgus CXCR2; experiment: FACS hGro-α competition
Human CXCR2 [3] = biological target: T1, Human CXCR2; experiment: cell-based or functional assay
Cynomolgus CXCR2 [4] = biological target: T2, Cynomolgus CXCR2; experiment: cell-based or functional assay
Human CXCR2 [5] = biological target: T1, Human CXCR2; experiment: cell-based or functional assay; remark: listed apart in the source
Cynomolgus CXCR2 [6] = biological target: T2, Cynomolgus CXCR2; experiment: cell-based or functional assay
Human CXCR2 [7] = biological target: T1, Human CXCR2; experiment: FACS, periplasmic extract vs FMAT Blue Gro-α
Experimental: Periplasmic extracts (as described above) were analyzed on FACS for competition with Gro-α in binding to human CXCR2. 2×10⁵ cells were incubated with a ½ dilution of periplasmic extracts in FACS buffer (PBS+10% fetal bovine serum (Sigma, F7524)) for 30 minutes at 4° C. Then, an equal volume of 6 nM of FMAT Blue-labeled human Gro-α in FACS buffer was added and incubation was continued for another 30 minutes at 4° C. in the dark. Cells were then washed three times in FACS buffer and finally resuspended in FACS buffer. Dead cells were stained with propidium iodide (Sigma, P4170). Samples were then analyzed on a FACSarray (BD Biosciences).

Human CXCR2 [8] = biological target: T1, Human CXCR2; experiment: FACS competition vs 3 nM FMAT-Blue Gro-α
Experimental: (§1) Purified monovalent anti-CXCR2Nanobodies were titrated against 3 nM FMAT-Blue-labeled Gro-α in the FACS ligand competition assay on human and cynomolgus CXCR2 (Table 10). On human CXCR2, blocking potencies range between double digit nM and sub-nM whereas on cynomolgus CXCR2, they range between single and double digit nM.

Cynomolgus CXCR2 [9] = biological target: T2, Cynomolgus CXCR2; experiment: FACS competition vs 3 nM FMAT-Blue Gro-α
Experimental: as §1

Human 1to19 peptide = biological target: T3, Human 1to19 peptide; experiment: ELISA, periplasmic extract on biotinylated peptide
Experimental: In another setup, periplasmic extracts were analyzed for binding to human 1 to 19 peptide by ELISA. MaxiSorb plates (Nunc, 430341) were coated for two hours with neutravidin followed by one hour blocking (PBS, 1% casein). Then 100 nM biotinylated human 1 to 19 peptide was added to these plates for one hour (PBS, 0.1% casein, 0.05% tween20) followed by one hour incubation with 10-fold dilutions of periplasmic extracts. Unbound periplasmic extracts were washed away (PBS supplemented with 0.05% tween20) and bound Nanobodies were detected using mouse anti-myc (Roche, 11667149001) followed by rabbit anti-mouse-HRP conjugate (Dakocytomation, P0260). Table 8 summarizes the ratios of the binding signals of anti-CXCR2Nanobodies over an irrelevant control Nanobody.

Human CXCR2 [10] = biological target: T1, Human CXCR2; experiment: cell-based or functional assay; remark: listed apart in the source
Cynomolgus CXCR2 [11] = biological target: T2, Cynomolgus CXCR2; experiment: cell-based or functional assay

| IC50 (Human CXCR2 [1]) [nM] | IC50 (Cynomolgus CXCR2 [2]) [nM] | FLIPR hGro-α IC50 (Human CXCR2 [3]) [nM] | FLIPR hGro-α IC50 (Cynomolgus CXCR2 [4]) [nM] | Human Chemotaxis IC50 (GROα) (Human CXCR2 [5]) [nM] | Human WBSC IC50 (rhGROα) (Human CXCR2 [5]) [nM] | Cynomologus WBSC IC50 (rhGROα) (Cynomolgus CXCR2 [6]) [nM] | FACS Gro-α competition (% inhibition) (Human CXCR2 [7]) [%] | % inhibition of max (Human CXCR2 [8]) [%] | IC50 (Human CXCR2 [8]) [nM] | % inhibition of max (Cynomolgus CXCR2 [9]) [%] | IC50 (Cynomolgus CXCR2 [9]) [nM] | ratio of binding signal relative to blank control (Human 1to19 peptide) [ratio] | FLIPR % inhibition max (Human CXCR2 [10]) [%] | FLIPR IC50 (GRO-α induced calcium release) (Human CXCR2 [10]) [nM] | [35S]GTPγS % inhibition max (GRO-α) (Human CXCR2 [10]) [%] | [35S]GTPγS IC50 (GRO-α) (Human CXCR2 [10]) [nM] | FLIPR % inhibition max (Cynomolgus CXCR2 [11]) [%] | FLIPR IC50 (GRO-α induced calcium release) (Cynomolgus CXCR2 [11]) [nM] | Binder |
| --- | --- | --- | --- | --- | --- | --- | --- | --- | --- | --- | --- | --- | --- | --- | --- | --- | --- | --- | --- |
| 1.5 | 19 | 390 | 19000 | – | – | – | – | – | – | – | – | – | – | – | – | – | – | – | B1 |
| 1.3 | 35 | 650 | 24000 | 212 | 29.5 | > 100 | 38.1 | 42.7 | 2.07 | 64 | 31.6 | 58.6 | 100 | 441 | 71.3 | 103 | 100 | 3850 | B2 |
| – | 54 | 6100 | 24000 | – | – | – | – | – | – | – | – | – | – | – | – | – | – | – | B3 |
